Experimental data taken from paper PMC7343221 (Nature structural & molecular biology, 2020).

Target: the molecule itself
Assay: cryo-EM structure

B1: N-terminal IST1 R16E/K27E mutant (IST1NTD^R16E/K27E) (domain or fragment, human, UniProt P53990 1-189, looked up)
chain: MLGSGFKAERLRVNLELVINRLKLLEEKKTELAQKARKEIADYLAAGKDERARIRVEHIIREDYLVEAMEILELYCDLLLARFGLIQSMKELDSGLAESVSTLIWAAPRLQSEVAELKIVADQLCAKYSKEYGKLCRTNQIGTVNDRLMHKLSVEAPPKILVERYLIEIAKNYNVPYEPDSVVMAEAPP
- binding result: binds
